Legend:
Test in all cases: cell-based or functional assay
papain [1] = biological target: T1, papain (UniProt P00784 134-345)
T1 sequence (looked up): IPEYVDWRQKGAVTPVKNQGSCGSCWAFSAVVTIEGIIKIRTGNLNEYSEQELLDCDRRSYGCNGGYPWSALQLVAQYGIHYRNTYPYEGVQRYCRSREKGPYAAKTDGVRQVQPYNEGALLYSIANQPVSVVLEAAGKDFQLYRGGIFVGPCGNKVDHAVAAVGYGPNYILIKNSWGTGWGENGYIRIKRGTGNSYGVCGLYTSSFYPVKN

cathepsin L [2] = biological target: cathepsin L
cathepsin B [3] = biological target: cathepsin B
cathepsin S = biological target: cathepsin S
papain [4] = biological target: T1, papain; remark: listed apart in the source
cathepsin L [5] = biological target: cathepsin L; remark: listed apart in the source
cathepsin B [6] = biological target: cathepsin B; remark: listed apart in the source

B1: bovine lactoferrin (manufactured by Morinaga Milk Industry Co., Ltd.) (other)
chain: APRKNVRWCTISQPEWFKCRRWQWRMKKLGAPSITCVRRAFALECIRAIAEKKADAVTLDGGMVFEAGRDPYKLRPVAAEIYGTKESPQTHYYAVAVVKKGSNFQLDQLQGRKSCHTGLGRSAGWIIPMGILRPYLSWTESLEPLQGAVAKFFSASCVPCIDRQAYPNLCQLCKGEGENQCACSSREPYFGYSGAFKCLQDGAGDVAFVKETTVFENLPEKADRDQYELLCLNNSRAPVDAFKECHLAQVPSHAVVARSVDGKEDLIWKLLSKAQEKFGKNKSRSFQLFGSPPGQRDLLFKDSALGFLRIPSKVDSALYLGSRYLTTLKNLRETAEEVKARYTRVVWCAVGPEEQKKCQQWSQQSGQNVTCATASTTDDCIVLVLKGEADALNLDGGYIYTAGKCGLVPVLAENRKSSKHSSLDCVLRPTEGYLAVAVVKKANEGLTWNSLKDKKSCHTAVDRTAGWNIPMGLIVNQTGSCAFDEFFSQSCAPGADPKSRLCALCAGDDQGLDKCVPNSKEKYYGYTGAFRCLAEDVGDVAFVKNDTVWENTNGESTADWAKNLNREDFRLLCLDGTRKPVTEAQSCHLAVAPNHAVVSRSDRAAHVKQVLLHQQALFGKNGKNCPDKFCLFKSETKNLLFNDNTECLAKLGGRPTYEEYLGTEYVTAIANLKKCSTSPLLEACAFLTR
inhibition rate (%) at 10^-4M inhibitor (papain [1]): 100% | inhibition rate (%) at 10^-5M inhibitor (papain [1]): 100% | inhibition rate (%) at 10^-6M inhibitor (papain [1]): 100% | inhibition rate (%) at 10^-7M inhibitor (papain [1]): 40% | inhibition rate (%) at 10^-8M inhibitor (papain [1]): 0% | inhibition rate (%) at 10^-4M inhibitor (cathepsin L [2]): 100% | inhibition rate (%) at 10^-5M inhibitor (cathepsin L [2]): 100% | inhibition rate (%) at 10^-6M inhibitor (cathepsin L [2]): 100% | inhibition rate (%) at 10^-7M inhibitor (cathepsin L [2]): 20% | inhibition rate (%) at 10^-8M inhibitor (cathepsin L [2]): 0% | inhibition rate (%) at 10^-4M inhibitor (cathepsin B [3]): 100% | inhibition rate (%) at 10^-5M inhibitor (cathepsin B [3]): 70% | inhibition rate (%) at 10^-6M inhibitor (cathepsin B [3]): 10% | inhibition rate (%) at 10^-7M inhibitor (cathepsin B [3]): 0% | inhibition rate (%) at 10^-8M inhibitor (cathepsin B [3]): 0% | inhibition rate (%) at 10^-4M inhibitor (cathepsin S): 100% | inhibition rate (%) at 10^-5M inhibitor (cathepsin S): 80% | inhibition rate (%) at 10^-6M inhibitor (cathepsin S): 15% | inhibition rate (%) at 10^-7M inhibitor (cathepsin S): 0% | inhibition rate (%) at 10^-8M inhibitor (cathepsin S): 0%

YEKYLGPQYVAGITNLK [human lactoferrin peptide Y679-K695]
inhibition of cysteine protease activity at 10^-4 M inhibitor (papain [4]): > 50% | inhibition of cysteine protease activity at 10^-4 M inhibitor (cathepsin L [5]): > 50%

B2: bovine transferrin (manufactured by Nihon Pharmaceutical Co., Ltd.) (other)
chain: DPERTVRWCTISTHEANKCASFRENVLRILESGPFVSCVKKTSHMDCIKAISNNEADAVTLDGGLVYEAGLKPNNLKPVVAEFHGTKDNPQTHYYAVAVVKKDTDFKLNELRGKKSCHTGLGRSAGWNIPMAKLYKELPDPQESIQRAAANFFSASCVPCADQSSFPKLCQLCAGKGTDKCACSNHEPYFGYSGAFKCLMEGAGDVAFVKHSTVFDNLPNPEDRKNYELLCGDNTRKSVDDYQECYLAMVPSHAVVARTVGGKEDVIWELLNHAQEHFGKDKPDNFQLFQSPHGKDLLFKDSADGFLKIPSKMDFELYLGYEYVTALQNLRESKPPDSSKDECMVKWCAIGHQERTKCDRWSGFSGGAIECETAENTEECIAKIMKGEADAMSLDGGYLYIAGKCGLVPVLAENYKTEGESCKNTPEKGYLAVAVVKTSDANINWNNLKDKKSCHTAVDRTAGWNIPMGLLYSKINNCKFDEFFSAGCAPGSPRNSSLCALCIGSEKGTGKECVPNSNERYYGYTGAFRCLVEKGDVAFVKDQTVIQNTDGNNNEAWAKNLKKENFEVLCKDGTRKPVTDAENCHLARGPNHAVVSRKDKATCVEKILNKQQDDFGKSVTDCTSNFCLFQSNSKDLLFRDDTKCLASIAKKTYDSYLGDDYVRAMTNLRQCSTSKLLEACTFHKP
inhibition of cysteine protease activity at 10^-4 M inhibitor (papain [4]): 40% | inhibition of cysteine protease activity at 10^-4 M inhibitor (cathepsin L [5]): > 30% | inhibition of cysteine protease activity at 10^-4 M inhibitor (cathepsin B [6]): > 30%

Source: patent US20050176123A1 (MORINAGA MILK INDUSTRY, published 2005)
